# Patent US20060228299A1 (University of Texas, published 2006)
# T1: murine β2GPI (in normal mouse serum) (mouse, UniProt Q01339 20-345)
# T1 construct: mature; also called mouse β2GPI
# T1 sequence (looked up): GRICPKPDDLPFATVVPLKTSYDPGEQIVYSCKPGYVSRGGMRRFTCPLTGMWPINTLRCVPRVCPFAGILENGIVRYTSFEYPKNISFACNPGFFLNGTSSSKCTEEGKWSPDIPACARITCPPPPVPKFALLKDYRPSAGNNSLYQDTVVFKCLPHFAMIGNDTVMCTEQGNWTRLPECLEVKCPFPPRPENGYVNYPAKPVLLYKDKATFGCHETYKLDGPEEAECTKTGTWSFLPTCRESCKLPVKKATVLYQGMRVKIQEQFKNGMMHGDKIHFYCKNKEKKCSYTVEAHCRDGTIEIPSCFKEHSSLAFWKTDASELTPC
# B1: 3G4 mouse monoclonal antibody as used in Example XXX (converted to mouse IgG2a isotype, produced in NS0 cells) (antibody, V domains shown)
# VH: EVQLQQSGPELEKPGASVKLSCKASGYSFTGYNMNWVKQSHGKSLEWIGHIDPYYGDTSYNQKFRGKATLTVDKSSSTAYMQLKSLTSEDSAVYYCVKGGYYGHWYFDVWGAGTTVTVSS
# VL: DIQMTQSPSSLSASLGERVSLTCRASQDIGSSLNWLQQGPDGTIKRLIYATSSLDSGVPKRFSGSRSGSDYSLTISSLESEDFVDYYCLQYVSSPPTFGAGTKLELKR
# notes: It was purified from serum-free media (SFM) or serum-containing media (SCM); also called 3G4 SFM; 3G4 SCM
# Molecular target: T1, murine β2GPI (in normal mouse serum)
# Experiment: immunoblot of 10% normal mouse serum
binder,measurement,value
B1,binding result,no binding (tested: 1 µg/ml)
